In patent publication US11021755B2, “Compositions and methods for identifying anti cancer, anti-metastatic and anti-stress agents” (THE REGENTS OF THE UNIVERSITY OF CALIFORNIA, priority 2015, dated 2021):
Peptide text beside a SMILES is read from it. * marks the point of attachment. Cbz = O=C(OCc1ccccc1)*

Assays:
[1] = tested on: Slug protein and pY416 SFK in MCF10A cells; test: Immunoblots of MCF10A cells stimulated with TGF-b2 and treated with inhibitors or antibody; format: cell-based, human; details: for Slug protein levels: 10 mM MG132, 5 hr prior to lysis
Description: FIGS. 21F-G illustrate Immunoblots of MCF10A cells stimulated with TGF-b2 or vehicle control and probed for the indicated proteins. FIG. 21F: Cells were transfected with control (Ctrl) or b3 siRNA and additionally treated with vehicle or proteasome inhibitor (MG132) for 5 hr prior to lysis. FIG. 21G: Cells were treated with 100 nM Src inhibitor (dasatinib) for the indicated length of time prior to lysis. FIG. 21F and FIG. 21G: Data shown are representative of three independent experiments.
Indeed, Slug protein levels are highly regulated through degradation by the proteasome (Kim et al. 2012; Wu et al., 2012). […] Thus, it appears that TGF-β2-stimulated expression of a αvβ3 mediates SFK activation resulting in enhanced Slug protein stability.
(§1) For experiments with MCF10A and HMECs, TGF-b2 stimulations were performed with 5 ng/ml TGF-b2 (PeproTech) or 0.1% BSA/PBS (vehicle) for 48 hr prior to lysis. In some experiments, […] of the anti-αvβ3 function-blocking antibody LM609 (Millipore) was added to cells at the same time as TGF-b2 or vehicle addition. For the proteasome inhibitor experiments, 10 mM MG132 (Sigma-Aldrich) or DMSO (vehicle) was added to transfected MCF10A cells 5 hr prior to lysis. Treatment of MCF10A cells with the SFK inhibitor dasatinib (ChemieTek) or DMSO (vehicle) was performed with 100 nM dasatinib for the indicated times prior to harvesting lysates.

[2] = tested on: β3 expression in MaSCs/basal cells; test: β3 expression in K14+SMA+ cells from virgin WT mammary cells stimulated with growth factors (immunofluorescence); format: cell-based, mouse; details: cells from virgin WT mice; relative to vehicle-treated cells; TGF-b2 5 ng/ml, TGF-b1 5 ng/ml, RANKL 50 ng/ml, 48 hr
Excerpt: (§2) To examine the ability of these factors to increase β3 expression, we stimulated cells from virgin WT mice and measured β3 expression in MaSCs/basal cells, defined by expression of K14 and SMA.
FIG. 20A illustrates representative immunofluorescent images of β3 expression in K14+SMA+ cells (arrows) from pooled virgin WT mammary cells stimulated with the indicated growth factors. Nuclei are stained blue in all panels. Scale bars, […]. Data shown are representative of three independent experiments.
(§3) Cells from digested mammary glands were seeded at 40,000 cells per well onto MEFs (for colony-formation assays) or 8-well chamber slides (Lab-Tek) coated with 2% Matrigel/DMEM. At the time of seeding, cells were suspended in complete DMEM supplemented with vehicle (0.1% BSA/PBS), RANKL (50 ng/ml), TGF-b1 (5 ng/ml), or TGF-b2 (5 ng/ml) (PeproTech). Cells were fixed with 2% paraformaldehyde/PBS after 48 hr (chamber slides) or 5 days (colonies) for immunofluorescent staining.

[3] = tested on: MaSC/basal and luminal colonies from virgin mammary cells; test: Mammary colony formation on irradiated MEFs with growth factors; format: cell-based, mouse; details: for total colony number: virgin mammary cells on irradiated MEFs
Description: This effect was reduced in mammary cells from β3KO mice (FIG. 20H), similar to our results from pregnant b3KO mice (FIG. 19C).
For colony formation on irradiated MEFs, 100,000 MEFs were seeded into 6-well dishes for 48 hr prior to adding 40,000 cells from digested mammary glands and grown in complete Dulbecco's modified Eagle's medium (DMEM). Colonies formed over 5-6 days before fixing and staining with either 0.1% crystal violet/20% methanol/PBS or 2% paraformaldehyde/PBS for immunofluorescent staining and counting colonies. For Matrigel colonies, 5,000 fluorescence-activated cell sorting (FACS) mammary gland cells were suspended in […] growth factor-reduced Matrigel (BD PharMingen) and grown 14 days in serum-free mammary epithelial cell medium-basal medium (Cambrex) supplemented with B27 supplement, 20 ng/ml epidermal growth factor, 20 ng/ml […] fibroblast growth factor, […], 100 U/ml penicillin, and […] streptomycin. Total colonies per well were counted from each of the four replicates per experiment.
as §3

[4] = tested on: ITGB3 promoter in HCC827 cells; details: resuming erlotinib treatment after erlotinib holiday
[5] = tested on: β3 mRNA in CD29hi MaSCs/basal cells and CD29lo luminal cells; test: qPCR of β3 mRNA in vehicle versus TGF-β2-stimulated CD29hi and CD29lo cells; format: cell-based, mouse
Excerpt: as §2
FIG. 20B and FIG. 20C graphically illustrate qPCR analysis comparing the relative levels of β3 mRNA in vehicle versus TGF-β2-stimulated CD29hi (FIG. 20B) and CD29lo (FIG. 20C) cells from WT virgin mice. n=2 independent experiments (pooled samples).
For FIG. 20B, FIG. 20C, and FIG. 20F: each sample was run in triplicate, and 18S rRNA (FIG. 20B and FIG. 20C) or b-actin (FIG. 20F) was used as loading controls.

[6] = tested on: β3 expression in human mammary epithelial cells (HMECs), MCF10As; test: Immunoblot for β3 in MCF10As and HMECs stimulated with TGF-b2; format: cell-based; details: HMECs including MCF10As; 5 ng/ml TGF-b2, 48 hr
Description: FIG. 20D illustrates an image of an Immunoblot for β3 and b-actin (loading control) in MCF10As and HMECs stimulated with TGF-b2 or vehicle control. Data shown are representative of three independent experiments.
as §1

β3 promoter = β3 promoter luciferase reporter in MCF10A cells; format: cell-based, human; details: reporter with proximal 1,300 bp of the β3 promoter
Excerpt: FIG. 20E graphically illustrates a Histogram displaying the relative luciferase activity in MCF10A cells transfected with an empty vector (Ctrl) or a luciferase reporter plasmid containing the proximal region of the β3 promoter (β3 prom-Luc) and stimulated with vehicle or TGF-β2. n=3 independent experiments. p=0.043.

[7] = tested on: nuclear Slug in K14+SMA+ MaSCs/basal cells; test: Slug expression in K14+SMA+ mammary cells stimulated with TGF-β2; format: cell-based, mouse
Excerpt: Slug was recently characterized as a determinant of the MaSC fate in the virgin mammary gland (Guo et al., 2012) and is expressed during early to midpregnancy but is negatively regulated by Elf5 during late stage pregnancy/lactation, allowing for alveolar maturation (Chakrabarti et al., 2012). Therefore, we considered whether β3 was required for TGF-β2-mediated Slug expression in MaSCs/basal cells.
To determine the potential mechanism by which αvβ3 regulates Slug, we considered whether αvβ3 signaling may be required by assessing whether the b3DC mutant affects Slug expression. […] The β3DC mutant has previously been characterized as defective in recruiting and activating Src family kinases (SFKs) (Ablooglu et al., 2009; Arias-Salgado et al., 2003; Desgrosellier et al., 2009).
FIG. 21B graphically illustrates quantitation of the percentage of Slug+K14+SMA+ cells. p=0.0439 (vehicle versus TGF-b2 inWT cells) and p=0.0342 (WT versus b3KO cells stimulated with TGF-b2). For FIG. 21A and FIG. 21B: WT, n=3, b3KO, n=3.
FIG. 21E graphically illustrates quantitation of the percentage of Slug-expressing K14+SMA+ cells from virgin WT and b3DC mammary cells stimulated with vehicle or TGF-b2. WT, n=2, b3DC, n=2. p=0.029 (vehicle versus TGF-b2 in WT cells) and p=0.032 (WT versus b3DC cells stimulated with TGF-b2).
as §3

[8] = virgin WT mammary cells on irradiated MEFs, compared to vehicle

CC(C)C[C@@H](C=O)NC(=O)[C@H](CC(C)C)NC(=O)[C@H](CC(C)C)NC(=O)OCc1ccccc1 [MG132] (Cbz-Leu-Leu-Leu-aldehyde)
Slug protein levels ([1]; b3 knockdown MCF10A cells): restore Slug protein levels to normal
Slug protein levels ([1]; control MCF10A cells): little effect

TGF-β1: transforming growth factor β (TGF-β) family member (PeproTech)
β3 expression in MaSCs/basal cells (K14 and SMA expressing) [2]: not
total colony number [3]: severe growth inhibitory effect

C#Cc1cccc(Nc2ncnc3cc(OCCOC)c(OCCOC)cc23)c1 [erlotinib]
expression of β3 and stem cell genes OCT4 and Nanog [4]: re-expression

B1: RANKL: receptor activator of nuclear factor kB ligand (protein, UniProt O14788 140-317, looked up)
Tumor necrosis factor ligand …: IRAEKAMVDGSWLDLAKRSKLEAQPFAHLTINATDIPSGSHKVSLSSWYHDRGWAKISNMTFSNGKLIVNQDGFYYLYANICFRHHETSGDLATEYLQLMVYVTKTSIKIPSSHTLMKGGSTKYWSGNSEFHFYSINVGGFFKLRSGEEISIEVSNPSLLDPDQDATYFGAFKVRDID
β3 expression in MaSCs/basal cells (K14 and SMA expressing) [2]: not
total colony number [3]: potent driver of colony formation

B2: TGF-β2: Transforming growth factor β2, growth factor released during pregnancy (PeproTech) (protein, UniProt P61812 303-414, looked up)
Transforming growth factor …: ALDAAYCFRNVQDNCCLRPLYIDFKRDLGWKWIHEPKGYNANFCAGACPYLWSSDTQHSRVLSLYNTINPEASASPCCVSQDLEPLTILYYIGKTPKIEQLSNMIVKSCKCS
β3 expression in MaSCs/basal cells (K14 and SMA expressing) [2]: stimulated β3 expression
β3 mRNA expression ([5]; CD29hi MaSCs/basal cells from WT virgin mice): drive β3 mRNA expression
β3 mRNA expression ([5]; CD29lo luminal cells from the same mice): little effect
β3 expression (immunoblot) [6]: potent driver
β3 promoter activity (relative luciferase activity) (β3 promoter): directly activating the β3 promoter
frequency of bipotent, MaSC-like colonies [3, 8]: increased
luminal colonies [3, 8]: reciprocal decrease
total colony number [3]: did not affect
Slug expression in K14+SMA+ cells ([7]; cells from β3DC knockin mice): no increase
nuclear Slug expression in K14+SMA+ cells ([7]; virgin WT mammary cells, compared to vehicle control): induced nuclear Slug expression
Slug expression in K14+SMA+ cells ([7]; β3KO cells): failed to increase Slug
expression of EMT markers such as Slug, E-cadherin, and Vimentin ([1]; MCF10A cells, TGF-β2 stimulation): drives changes
